From the NTF2 design screens of Basanta et al. (2020) come the findings set out here.

The data set is described as follows: protease stability score; higher = more stable; yeast display proteolysis, trypsin and chymotrypsin.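 Note: log10 excess protease needed over predicted unfolded state with 0 meaning unfolded.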
“EEEVEKAAERVAEVMKDNNPERVEELFDPNAHITVGDRTLHGREELSKHYKTMTDQWRIQIDRFSVEDHGSTVVIRIDFEADHDGRPEKREVIIKLSVSNGRVSWAIFKVDQ” had a protease stability score of 0.734. As to “EEEVKRKMKEYFDVARHGDPDRLREYVDENARIHIGDKVIHGMSDAADHLAQHYKEIRFDYTRIDVKAEGDQVKVDIDVVVNHNGRPEQVHLHWEARFTNGRVKHMKVQRQK”, the protease stability score was -0.108. To “EEEVQHKIKQLLKNNDWTTLADQVDPNARMVVGDKTVTGREQIQTIARRIQERVDHVEFKQLTVQGDHIDVVMVVNINGEHIKMHFIFRVHNGHIKHVEMQATDPRDQKKLKDLLE” belongs 1.54; to “EEEVSKRAREFVEAYQTGNEDKMHRLVDENADAQYGDKHIHGMTEIKRHVKRLTEEIRVQVESMDVKANNGHVRVRVHLVLHINGNPIDVTVIIVMRFKNGTIRSVQFRMPEEARDTIRK”, -0.077. “EEEVVKEVTKAAKTGNFEKLLRLADPNVEMRIGDKTFHGRTELKDALRDIKQNADHIELKSLDSHNGRLEVDLVVNVNGKDVRFILRVSVHNGRITQMSVESRDTDFKKVLDEMLG” yielded a protease stability score of 1.91. “EEHDERTMHRLVETNDWETISRNADKDVKFQVGNKSYHGKEEFTEVLRKITKRADHIEYRSFNSHNGRIDVDYVFVVNGKEVKVFVQIQVHNGRIKHMRMRATNPDQQQELVDQLS” yielded a protease stability score of 1.44. To “EEHIKEVLDRVREAWRKNNPDDLKRNFDPNARFNIGNKRYHGMEHFVEDVARLLHEIHVEIHYHHITFDGNEARFSYDAVFNVDGRPIRDSMSRRVILHNGKIVDMKVDVDPKELDKKLK” belongs -0.093. Regarding “EEHLESLVRNLEEAVKKGNPEEMKKNLDKNARMVYGDKRLHGMSDILTEIEKRREHMRLEHEVKSIDNQGNKAKVTARLDVNVNGHPVDVDFIIHIKVHNGHVLEIVYQLPPEAHEKLKT”, the protease stability score was -0.278.

“EEHLKHVVEELWKAMQTGDEDKIRRNADPNAHFSIGDKVIQGRERFAQDVRQTYDEIRVDIKIHRMNIQGEKVKVRFTFEQKVNGKPRSDENSAENTLHNGKVEEMNITIDPDKQRKFES” came in with a protease stability score of -0.43.

As to “EEHLKQTFKEYMENYRTGNEEQLHSMVDEEAKFSYGDKKIHGRTEAIKQLVRRREEMRWDVQIKDMEVHNGRIEVDARVRFKHNGQPDDQKVVFRAVIHNGRFKMISEQYQP”, the protease stability score came out at 0.376. Then “EEHLQERLTKLNEAEQKGDPKKILEQVDPNARVEVGDKTYHGMDRYARRVAKEMNEMRVEVHIKDLKVRGNNIHAEMSATHTKNGKPSHNEFTLVVVWNNGRVTSIVVTHKS”, with 0.717; and “EEHLQKTVEEMIKLIRHGNEHKVQENIDPNARIVIGEKRIRGRETFAHLLSKRHKEQRYEVREIKLTVQGEKVKVSMDVVADINGKPIRFSIDMFLHASNGKVKDIQYRISEEQRDKQQG”, with -0.033. The sequence “EEHMEDSFRKWKDNLRTNDEKSLEKMADPNATFDVGDKRFRGMHKYVHDLVNTLRSMRVDIKINSIDVQGDKIKARAQATVYHNGRPQRYTFSFEIKINNGHIQRLVRKDDQ” had a protease stability score of -0.035. As for “EEHQQKLIEEVLKAMDSGDEDRIKELVDPNAEFHVGDKTWHGMQDWARHVREEVEQIDFTWVNMEIRVKNGTVIMKARFEETRDGQPRTQNVNLRARVHNGRLTSMENDQHG”, the protease stability score came to 0.375.

Sequence “EEHQTKEWSKMLEVMTKGDKDKFRERADPNVRARVGDRTLHGWENVVRTELRRQHEISIDIHEMDVRSEGDKVVARYEFRQNQNGRPRRRDVTVTFRLHNGRLQEQHVQDTG” yielded a protease stability score of 0.148. To “EEHVKHIVDQLIKVLQHNDEKLWERLVDPNAEIRVGDKSIRGRERFSEEVRRQKHQARMQWKSVQVDVHGDKAVLHFSAEFQVNGQPADFDVTMHIQVHNGTVKRMFVQVPEKDVQRKTS” belongs 0.459; to “EEHVLTRFNSNMSNNNFNHIRDMADENAKMRVGDQEYHGRDNIHRLLEELKTQADHIQVRDYNHRGEHVHVDVEMVINGQKLVARWHAEIKNGRIKEMVLQFTNEEQEKTVRKALR”, 0.302. To “EEHVMRIVTNQLEAIKHGDEDRVRDLADPNARFHVGDKSIHGMEKYANDLRSEMEHMQVEFNLQSVTVEGDKVVITFEAQFNQNGKPKNYREVFRVEAQGDKIKDYRQERKD” belongs 0.001; to “EEKAEELVERFITAIETNDPDEVVNNIDPNARLRVGDKHVSGRDHQRQQVEEQERHMRVKYQHVRIDVTGDHARVHVVQVDNHNGKPRRFKYSASFVVQGDKIKHASQTTTE”, -0.163; to “EEKATRIAHELLSAVERGDEDRAEENFDENAQFQVGDKDIHGREQMKHFVKTVKEQSRLDMHITDVQDRPGHANVKATAREDNNGNPNNIRITMRASVSNGRIQSMQINYTD”, -0.638. To “EEKIVDILERMVTALHTGDPDTVHENLDPNAHVVIGDKEFTGMDTMHRTLERQKKEIRIQINSYSVHAQGNKADIDIDMVNEHNGHPDRNRYRVDAKVHNGKIKQVRYEEVS” belongs -0.38.

Regarding “EEKLEEQVEELLKNLDTGDENRARQLADPNVRARVGDKEYHGMEQFIKDQMDQRRNARIEVKDLRSEHHGDKITVDLSYKAQHNGRPTTVQREVTFHAHNGKFRQMKIEQSG”, the protease stability score was -0.521. Sequence “EEKLRERIKKFIDIMQTGNPEELEKQADEDAHFEIGEKRVHGMDDYAKEVQRELEDAQVRINVDSVRASNGRVEAHATMSETRNGQPRTAELKLEAQFHNGRIKHVRLHKHQ” displayed a protease stability score of -0.059.

Sequence “EEKNQEHAEQVFRAYKDGDPNQIQRLLDPNAHARIGDKQLHGREQAREIMHRLRRHLQMDLKLQDVKAEGDKLQLNARAKHDDNGRPNDVKITITFDLQNGRIKSMSVKMSG” gave a protease stability score of 0.022. To “EEKNQHVAQQWLEMVQNGDPRKAKQQFDKDARVKIGDKELNGREEIVRQFEREQREMRVDIKDYKIDVNGDKVTVRLHVEVQSNGTPTTRDYVVHMQVHNGRVQMVIFRSDG” belongs 0.747.

“EEKNRKVFEEAMKAFQTNDKDQAERMFDENATVKIGDQEIHGNKQIREHIRTMEEHMRLEIKSIDLKVSNGRVHANITFVEEHNGEPKTLRLHVRAEVDNGTIESMQFNDDG”: the protease stability score was 0.159. With “EEKQDTRLEEFVSAVLKGDEQEAVDLADPNADMHIGEWHVRGREQIRKFIDQLRKRIRVQVDEMHVDNQGENVTVRATFVLDHNGVPMEFEIEYRLVVDNGRLKSVHARVPEEVKNRRRR”, the protease stability score was found to be 0.294.

The sequence “EEKQKTHVERFIEILREGDPQKAREMADKDAKFVYGDKSVHGMDEFRRQVERRNKQIHIDLKVREVDVHGNNVKIIIDAQEDHNGNPDSFKADMEVVYHNGRIKSASMDKQT” registered a protease stability score of 0.074. In the case of “EENEVEKIMQVAHSGDFDSLVELADPNVTIKVGDKEWHGREHATEFFEKMKRHIDHVDVKSMSAQGDKITVRAHFNVNGDTLDFNLHIVISNGRIQSVKIQVTSHELRKTLTDQLG”, the protease stability score was determined as 1.44. To “EENNLELAHRVMENIQTNNPDEVVKQLDPNARIQVGDKVYHGREQARKMVEDLIDRLRVQIDSVDLEVQGDKAQLEFTQIEEHNGRPNSAKFIVDVTVHNGRVQNMEFREHK” belongs 0.891; to “EEQAQENLENLIRAIEHGDHKTAKELMDPNVKFHYGDKQYHGRERVTDFIRTVHEQMDVEIESFDLKLENGRAKAKMTAVYDVNGKPVKISVTYVATVHNGKVKHLQRRVDPSQQREVKG”, 1.02; to “EEQAVEVMNRYIRALQTGSKQDLRDNMDPNVKAIYGDSVIHGREEIARHLVKTMKDIRVENDVRDMRFDGDKIELRAKWVFEHDGRPRTNKYVVHAVAHDGKIKHINLQEDQ”, -0.058. In the case of “EEQLKHRLRTYIEALQTGDEKKMVEMVDPNAHIRVGDSTIHGREELRKWVQHLQREIRFQVKIRSIDVSGEHLDVKAEVRYDFNGQPVRDTLNISAEASNGTFTDLRLHIDEDVLRKIKS”, the protease stability score was 1.16. “EEQVEELMHRIMTAIKTNNPDDLKRNIDPNAKIRIGDTVIHGMEEYVHQFEEEVKQLRIEIIDVQQDIKGDKVVVKIRFRRQHNGRPDETVTVFTAKMDNGKVKSLDFQEDG” had a protease stability score of 1.22. Then “EEQVRELLRKALEAKQEGDEKKLTKLFDPNAKVDVGDKTFHGMEDIARTIVTELKQIRVRLEIKHYSMRGDHLRVDAEVEEEHNGEPQTRRVIIYMHVQGDKITKQKIEDRQ”, with 1.08; and “EERANDAARRFLEAIDRNNPDEAVKNFDPNARFRYGDKTVTGRTEVQELLEHLLKQMRITIQSVRVDARGDKVTVHLTVVVDVNGQPERHEMTVIANIHNGRIKEMEVRVDPDEQRERKR”, with 0.575. Then “EERDEAENAIRRFLEAVEEGDEDNLREQADPNAKFDVGDKTVHGMKSYARQQIEERERIDHVDYRISSVRLEGNRADVKVKFKARVDGRTKTATATINMQRHNGRMKIKEMKIN”, with 0.018. Then “EERDMEKMDTLVRDNDWKKMKNNVDPNAQVRIGEHEYTGKQQASTAFDILQKQVDHVDIHSFKNHGDQVEVHAILRYNGQNFQVNFRFRVHNGRFKKFSVEFTSEQQNKIMEEWLG”, with -0.039. In turn, “EEREVEEMQKILQHGDPKEFEDNMDPNADVEIGDQQYRGRETIAQVLQKFRDQIDHRHIEEVHIHGDHAVIDVVATVNGQDLKYIIVVKVENGKLKSARLQATDPRVKHRMQEVYE” displayed a protease stability score of 0.32. Then “EERLQELAERWWKARRTGDPHKIRDLLDKDVRVEYGNKSIHGRENIAHEIVRQLKHLRLDEKVERIDRSNGHVRATLSVTVNINGQPYTYRFELRIRAHNGKVKKIELRMPEEVVRRLDT”, with 1.73; and “EERQQELAKTFMEAVQSNDTTQLKRMFDKHAKVTVGDKTVSGREDASKWLSKLHKESRVQLRDVKVEVSGNKIDIKVRFEVQHNGKPREVTREMEMTFHNGKIKDLRATRTE”, with 0.394. On to “EERVNSVAEQFLDAVHTGDPNRVREQMDKDARMHVGDTTLHGRENMANHWKTLLDEMRITFHDYRIRVTGEEVEIRADVQYNHNGRPKRRVLTYTVEADNGKIHNWKVQEDS”, for which the protease stability score is 0.472. “EERVQKMLEDAMRTNDEVELIKSAPPNAKVVVGDKKIKGHEEAHRWAVRFKEQVDHTEIKHLDINGDKVSLDFSIVINGKKIRVVVKVTATNGKVREVHVQATSEDDQEQLKRDIK” displayed a protease stability score of 0.652. For the sequence “EESAIERLKEAMKAFDHGDEDEWRQQFDKNARVQIGDKSVRGRDNMAKQIKKEKEKMRVEVKLESVHVHNGHVTADADYKEQKNGRPTSSRFQLHATFKGDKFKNMVWHKDS”, the protease stability score is -0.422.

For the sequence “EESLEHIVRTMLEQIRRGDPRDLKEMFPENARIEYGDRSIHGREEYAKTMEHKRRQARYHFQVKSIRNNGNKVELVMEVEDNHNGNPSTRRVKLTIVFHNGRIQNVEQTNKP”, the protease stability score came out at 1.03. To “EESLIRLATLFMRAMETGDPKQANDLVDPNARFKIGDSVINGRERFNEWLKDLKEEMSVHYRVEHMHAEGDRVEVDFVVVYNVDGRPQRMRVKLEADLSNGRMRNVTLRFPSEEEKKIKK” belongs 0.525. Then “EESVIKRIHQLMESNDWDQLVRQMDEDAKVEIGNFRVEGREEAEDWARKVKKQVDHLEVEDIQIRGNKVEVTMNVQVNGKTVRFDLVMEVRNGRVTSMSARFRSEDDVKIMEEMLK”, with 1.15.
